Test results reported in paper PMC5988349 (Nature, 2018).

B1: dynein heavy chain (HC) residues 1-1455 (domain or fragment)
chain: MSEPGGGGGEDGSAGLEVSAVQNVADVSVLQKHLRKLVPLLLEDGGEAPAALEAALEEKSALEQMRKFLSDPQVHTVLVERSTLKEDVGDEGEEEKEFISYNINIDIHYGVKSNSLAFIKRTPVIDADKPVSSQLRVLTLSEDSPYETLHSFISNAVAPFFKSYIRESGKADRDGDKMAPSVEKKIAELEMGLLHLQQNIEIPEISLPIHPMITNVAKQCYERGEKPKVTDFGDKVEDPTFLNQLQSGVNRWIREIQKVTKLDRDPASGTALQEISFWLNLERALYRIQEKRESPEVLLTLDILKHGKRFHATVSFDTDTGLKQALETVNDYNPLMKDFPLNDLLSATELDKIRQALVAIFTHLRKIRNTKYPIQRALRLVEAISRDLSSQLLKVLGTRKLMHVAYEEFEKVMVACFEVFQTWDDEYEKLQVLLRDIVKRKREENLKMVWRINPAHRKLQARLDQMRKFRRQHEQLRAVIVRVLRPQVTAVAQQNQGEVPEPQDMKVAEVLFDAADANAIEEVNLAYENVKEVDGLDVSKEGTEAWEAAMKRYDERIDRVETRITARLRDQLGTAKNANEMFRIFSRFNALFVRPHIRGAIREYQTQLIQRVKDDIESLHDKFKVQYPQSQACKMSHVRDLPPVSGSIIWAKQIDRQLTAYMKRVEDVLGKGWENHVEGQKLKQDGDSFRMKLNTQEIFDDWARKVQQRNLGVSGRIFTIESTRVRGRTGNVLKLKVNFLPEIITLSKEVRNLKWLGFRVPLAIVNKAHQANQLYPFAISLIESVRTYERTCEKVEERNTISLLVAGLKKEVQALIAEGIALVWESYKLDPYVQRLAETVFNFQEKVDDLLIIEEKIDLEVRSLETCMYDHKTFSEILNRVQKAVDDLNLHSYSNLPIWVNKLDMEIERILGVRLQAGLRAWTQVLLGQAEDKAEVDMDTDAPQVSHKPGGEPKIKNVVHELRITNQVIYLNPPIEECRYKLYQEMFAWKMVVLSLPRIQSQRYQVGVHYELTEEEKFYRNALTRMPDGPVALEESYSAVMGIVSEVEQYVKVWLQYQCLWDMQAENIYNRLGEDLNKWQALLVQIRKARGTFDNAETKKEFGPVVIDYGKVQSKVNLKYDSWHKEVLSKFGQMLGSNMTEFHSQISKSRQELEQHSVDTASTSDAVTFITYVQSLKRKIKQFEKQVELYRNGQRLLEKQRFQFPPSWLYIDNIEGEWGAFNDIMRRKDSAIQQQVANLQMKIVQEDRAVESRTTDLLTDWEKTKPVTGNLRPEEALQALTIYEGKFGRLKDDREKCAKAKEALELTDTGLLSGSEERVQVALEELQDLKGVWSELSKVWEQIDQMKEQPWVSVQPRKLRQNLDALLNQLKSFPARLRQYASYEFVQRLLKGYMKINMLVIELKSEALKDRHWKQLMKRLHVNWVVSELTLGQIWDVDLQKNEAIVKDVLLVAQG
B2: BICDR1 (BICD related-1), as used for the cryo-EM of TDR (natural protein)
chain: MSAFCLGLAGRASAPAEPDSACCMELPAGAGDAVRSPATAAALVSFPGGPGELELALEEELALLAAGERSSEPGEHPQAEPESPVEGHGPPLPPPPTQDPELLSVIRQKEKDLVLAARLGKALLERNQDMSRQYEQMHKELTDKLEHLEQEKHELRRRFENREGEWEGRVSELETDVKQLQDELERQQLHLREADREKTRAVQELSEQNQRLLDQLSRASEVERQLSMQVHALKEDFREKNSSTNQHIIRLESLQAEIKMLSDRKRELEHRLSATLEENDLLQGTVEELQDRVLILERQGHDKDLQLHQSQLELQEVRLSYRQLQGKVEELTEERSLQSSAATSTSLLSEIEQSMEAEELEQEREQLRLQLWEAYCQVRYLCSHLRGNDSADSAVSTDSSMDESSETSSAKDVPAGSLRTALNDLKRLIQSIVDGVEPTVTLLSVEMTALKEERDRLRVTSEDKEPKEQLQKAIRDRDEAIAKKNAVELELAKCKMDMMSLNSQLLDAIQQKLNLSQQLEAWQDDMHRVIDRQLMDTHLKEQSRPAAAAFPRGHGVGRGQEPSTADGKRLFSFFRKI

Tests used:
[1] = biological target: β-actin subunit of pig dynactin (pig (endogenous in pig brain), UniProt Q6QAQ1 1-375); assay: cryo-EM structure
[2] = biological target: the molecule itself; assay: cryo-EM structure

Binder	binding result [1]	binding result [2]
B1	binds	binds
B2	–	binds
